# Test results from paper PMC10514974, “The NAC transcription factor MdNAC4 positively regulates nitrogen deficiency-induced leaf senescence by enhancing ABA biosynthesis in apple”.
# T1: MdNAC4-GST (apple, UniProt B6DXL4 1-350)
# T1 sequence: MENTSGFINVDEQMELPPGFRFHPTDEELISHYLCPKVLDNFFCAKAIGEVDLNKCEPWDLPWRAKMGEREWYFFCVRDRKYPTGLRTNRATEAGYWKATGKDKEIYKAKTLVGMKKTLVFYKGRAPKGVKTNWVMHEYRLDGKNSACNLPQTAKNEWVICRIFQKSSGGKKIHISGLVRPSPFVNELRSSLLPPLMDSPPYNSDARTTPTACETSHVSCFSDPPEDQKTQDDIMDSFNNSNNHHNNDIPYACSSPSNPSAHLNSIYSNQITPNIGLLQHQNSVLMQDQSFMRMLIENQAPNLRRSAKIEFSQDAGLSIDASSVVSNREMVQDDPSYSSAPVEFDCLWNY
# B1: MdSAG39 mutant probe (dsDNA)
# DNA 1: TTTTGTAAGGGACGGACCACGCTGA
# DNA 2: TCAGCGTGGTCCGTCCCTTACAAAA
# B2: MdNCED2 promoter probe P4 (ABRE) (dsDNA)
# DNA 1: TAAATCCACCACGTGGTCTCTCATG
# DNA 2: CATGAGAGACCACGTGGTGGATTTA
# B3: MdSAG39 promoter probe P2 (ABRE) (dsDNA)
# DNA 1: TTTTGTAAGGCACGTACCACGCTGA
# DNA 2: TCAGCGTGGTACGTGCCTTACAAAA
# B4: MdNCED2 mutant probe (dsDNA)
# DNA 1: TAAATCCACGACGGGGTCTCTCATG
# DNA 2: CATGAGAGACCCCGTCGTGGATTTA
# Experiments:
# Conditions in all cases: protein: recombinant; tags: GST (pGEX4T-1); label: biotin; blunt
# MdNAC4-GST [1] = biological target: T1, MdNAC4-GST; experiment: EMSA; LightShift binding buffer, 30 min at 24 °C in the dark; biotin-labeled probes; salt and pH not stated
# MdNAC4-GST [2] = biological target: T1, MdNAC4-GST; experiment: EMSA; unlabeled competitor 5x, 50x, 100x progressively abolished binding; LightShift binding buffer, 30 min at 24 °C in the dark; biotin-labeled probes; salt and pH not stated
# MdNAC4-GST [3] = biological target: T1, MdNAC4-GST; experiment: EMSA; unlabeled competitor 5x, 50x, 100x abolished binding; LightShift binding buffer, 30 min at 24 °C in the dark; biotin-labeled probes; salt and pH not stated
Binder,binding result (MdNAC4-GST [1]),further results
B1,no binding,–
B2,–,binding result (MdNAC4-GST [2]): binds
B3,–,binding result (MdNAC4-GST [3]): binds
B4,no binding,–
